Laboratory results: patent US20230173098A1, “NANOPARTICLE COMPLEX FOR ORAL ADMINISTRATION AND USES THEREOF” (IUCF-HYU (Industry-University Cooperation Foundation …, priority 2021, published 2023)

Columns and labels:
[1] = test system: small intestine endothelial cells (Caco-2); assay: Cytotoxicity (EZ-Cytox, TEM morphology) in small intestine endothelial cells; assay type: cell-based, human; conditions: Caco-2, gold equivalent 10 μM, 24 hours
Experimental: (§1) Specifically, human umbilical vein endothelial cells (HUVECs) and small intestine endothelial cells (Caco-2) were seeded in 96-well plates at a seeding density of 5×10^3 cells for each well and incubated for 24 hours in a CO2 incubator. Next, AuNP, Ce6-AuNP and Lf-PEG-AuNP (gold equivalent concentration of 10 μM) were applied for 24 hours. Next, after washing with PBS buffer, wells were treated with a culture medium containing EZ-Cytox at 37° C. and 5% CO2 for 4 hours. In this case, the absorbance of the medium was measured with a micro-well plate reader at a wavelength of 450 nm, and the results are illustrated in FIGS. 16, 17A and 17B.

[2] = test system: human umbilical vein endothelial cells (HUVECs); assay: Cytotoxicity (EZ-Cytox, TEM morphology) in vascular endothelial cells; assay type: cell-based; conditions: gold equivalent 10 μM, 24 hours
Experimental: as §1

[3] = PTT efficiency and photothermal heating profile under 532 nm PTT laser in vials; assay type: physicochemical
[4] = 532 nm, 4 W/cm^2, 240 sec, gold equivalent 10 μM

B1: AuNP-Lf: PEGylated Lf-conjugated AuNP (conjugate, UniProt P02788 20-710, looked up)
Lactotransferrin: GRRRSVQWCAVSQPEATKCFQWQRNMRKVRGPPVSCIKRDSPIQCIQAIAENRADAVTLDGGFIYEAGLAPYKLRPVAAEVYGTERQPRTHYYAVAVVKKGGSFQLNELQGLKSCHTGLRRTAGWNVPIGTLRPFLNWTGPPEPIEAAVARFFSASCVPGADKGQFPNLCRLCAGTGENKCAFSSQEPYFSYSGAFKCLRDGAGDVAFIRESTVFEDLSDEAERDEYELLCPDNTRKPVDKFKDCHLARVPSHAVVARSVNGKEDAIWNLLRQAQEKFGKDKSPKFQLFGSPSGQKDLLFKDSAIGFSRVPPRIDSGLYLGSGYFTAIQNLRKSEEEVAARRARVVWCAVGEQELRKCNQWSGLSEGSVTCSSASTTEDCIALVLKGEADAMSLDGGYVYTAGKCGLVPVLAENYKSQQSSDPDPNCVDRPVEGYLAVAVVRRSDTSLTWNSVKGKKSCHTAVDRTAGWNIPMGLLFNQTGSCKFDEYFSQSCAPGSDPRSNLCALCIGDEQGENKCVPNSNERYYGYTGAFRCLAENAGDVAFVKDVTVLQNTDGNNNEAWAKDLKLADFALLCLDGKRKPVTEARSCHLAMAPNHAVVSRMDKVERLKQVLLHQQAKFGRNGSDCPDKFCLFQSETKNLLFNDNTECLARLHGKTTYEKYLGPQYVAGITNLKKCSTSPLLEACEFLRK
modifications: PEGylated gold nanoparticle conjugate
**Q.** Which “cytotoxicity and morphological changes” value [1] does the source give for B1 here?
**A.** not detected

**Q.** And the “cytotoxicity and morphological changes” value [2]?
**A.** not detected

**Q.** What about the “PTT efficiency / heat generation (in words)” value ([3]; 532 nm PTT laser, 4 W/cm^2) of the same molecule?
**A.** higher PTT efficiency

**Q.** What about the “Maximum temperature (Tmax)” value [3, 4] of the same molecule?
**A.** 56.3 ± 0.5 °C

**Q.** And the “PTT efficiency (Tmax − T0)” value [3, 4]?
**A.** 29.6 ± 0.2 °C
